Data: paper PMC6362458 (Journal of the American Chemical Society, 2017)

Experiments:
[1] = Photolysis of P2-insulin suspension in pH 7.2 PBS; format: physicochemical
[2] = Visual precipitation on pH shift and clarification on photolysis; format: physicochemical; details: 75µM, 10 minutes 365nm LED (1.84 mW/cm^2)
[3] = 2 h
[4] = Isoelectric point determination by IEF gel electrophoresis; format: physicochemical; details: data not shown
[5] = cited from earlier work

Row | Substance | Insulin released from unirradiated control suspension ([1]; pH 7.2 PBS suspension processed identically, no 365 nm irradiation, IEF gel) | P2-insulin in supernatant of irradiated suspension ([1]; pH 7.2 PBS, IEF gel of supernatant) | Appearance of pH 7.2 suspension after irradiation [2] | Solubility at pH 4 [3] | pI of insulin reacted with uncharged DMNPE derivative vs native insulin [4] | pI (isoelectric point) [5]
1 | P2-Insulin: insulin with two pyrrolidines linked via the photocleavable DMNPE group; likely mixture of modified carboxyl sites | no insulin released | no detectable P2-insulin | substantially clarified the suspension | 216 µM | – | –
2 | insulin | – | – | – | – | 5.4 | 5.4
